Paper PMC3575409, “Identification of a Novel Protein-Protein Interaction Motif Mediating Interaction of GPCR-Associated Sorting Proteins with G Protein-Coupled Receptors” (PLoS ONE, 2013)

Assays:
[1] = system: GST-fused DOR C-tail; assay: GST-pull down, DOR C-tail; type: binding; conditions: percent of full-length GASP-1 interaction; three independent experiments
Method in brief: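 Phosphorimager quantification of [35S]-labelled GASP retained on GST-fused receptor C-tails after SDS-PAGE. Binding: glutathione-bead-bound fusions plus in vitro translated GASP, 1 h at 4°C, pH 7.4 Tris/NaCl/EDTA/DTT buffer with 1% Triton X-100. Means of at least three independent experiments.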

[2] = system: GFP-tagged ADRB2 in HEK293 cells; assay: Co-immunoprecipitation, ADRB2; type: cell-based; conditions: 48 h expression, anti-GFP immunoprecipitation
Experimental: (§1) HEK293 cells stably expressing N-terminal GFP-tagged ADRB1, ADRB2, CALCR and M1 or MyrPalm-mYFP were transfected with pcDNA3.1 containing the sequence for a central domain of GASP-1 (AA 380 to 1073) using JetPEI reagent (polyplus transfection) according to the instructions from the manufacturer. After 48 h of expression, cells were washed twice with PBS and lysed in a buffer containing 10 mM Tris-HCl, pH 7.4, 150 mM NaCl, 25 mM KCl, 0.3% Triton X-100 and cOmplete protease inhibitors (Roche) for 1 h at 4°C under agitation. 500 µg of cleared lysates were incubated with 1 µg of a mouse monoclonal anti-GFP antibody (Invitrogen) overnight at 4°C, followed by an incubation with 40 µl of protein A-Sepharose beads for an additional 2 h at 4°C. Beads were then washed five times in lysis buffer and precipitates were resolved on an 8% gel by SDS–PAGE and electrotransferred to immobilon-P membranes (Millipore) in 50 mM Tris-boric acid for 1 h at 300 mA. Membranes were blocked with 5% non-fat powder milk in TBS-Tween (50 mM Tris-HCl pH 8, 150 mM NaCl, 0.4% Tween-20) for 1 h at room temperature. […] For immunodetection of GASP or GFP-tagged receptors directly from cell lysates, 10 µg of proteins were loaded on SDS gels and analyzed following the procedure described above. Finally, membranes were washed in TBS-Tween and detected by chemiluminescence (ECL prime, GE Healthcare). […]

[3] = system: GFP-tagged CALCR in HEK293 cells; assay: Co-immunoprecipitation, CALCR; type: cell-based; conditions: 48 h expression, anti-GFP immunoprecipitation
Experimental: as §1

[4] = system: GFP-tagged M1 receptor in HEK293 cells; assay: Co-immunoprecipitation, M1; type: cell-based; conditions: 48 h expression, anti-GFP immunoprecipitation
Experimental: as §1

[5] = system: GST-fused M1 C-tail; assay: GST-pull down, M1 C-tail; type: binding; conditions: percent of full-length GASP-1 interaction; three independent experiments
Source text: cDNAs encoding the cytoplasmic C-tail of 14 GPCRs and 2 one-transmembrane receptors were cloned into the pGEX-2T prokaryotic expression vector downstream the GST sequence. The following pGEX constructs were engineered: pGEX-DOR encoding residues 314–372 of the δ-opioid receptor (referring to Swiss-Prot accession number U10504), pGEX-MOR encoding residues 334–400 of the µ-opioid receptor (L29301), pGEX-KOR encoding residues 326–380 of the κ–opioid receptor (U17298), pGEX-ORL1 encoding residues 315–370 of the opioid receptor-like 1 (X77130), pGEX-M1 encoding residues 414–460 of the muscarinic M1 acetylcholine receptor (X52068), pGEX-M2 encoding residues 436–466 of the muscarinic M2 acetylcholine receptor (M16404), pGEX- ADRB1 encoding residues 373–477 of the β1 adrenergic receptor (J03019), pGEX-ADRB2 encoding residues 322–413 of the β2 adrenergic receptor (P07550), pGEX-CALCR encoding residues 407–490 of the calcitonin receptor (L00587), pGEX-CNR2 encoding residues 295–360 of the cannabinoid type 2 receptor (P34972), pGEX-5HT7 encoding residues 380–445 of the 5-hydroxytryptamine 7 receptor (L21195), pGEX-H2 encoding residues 284–349 of the histamine 2 receptor (S57565), pGEX-TXA2 encoding residues 304–343 of the α isoform of the thromboxane A2 receptor (D38081), pGEX-FZ4 encoding residues 493–537 of the frizzled 4 receptor (AB032417), pGEX-TGFβ encoding residues 805–849 of the type III transforming growth factor b receptor (L07594), pGEX-IGF1 encoding residues 1268–1367 of the insulin growth factor I receptor (X04434). Free GST was produced by using the pGEX-4T3 expression vector without insert. The same plasmid was used to clone the cDNA encoding a central domain of GASP-1, corresponding to amino acids 380 to 1073, downstream the GST sequence. All these plasmids were transformed into the Escherichia coli BL21 strain and expression was induced using 1mM of isopropylthiogalactoside for 2 h at 37°C. Bacteria were then pelleted, resuspended in PBS supplemented with cOmplete protease inhibitors (Roche), lysed at 1.5 kbar using a basic Z cell disrupter (constant system) and finally the lysates were cleared by centrifugation (10,000g, 15 min, 4°C).
cDNAs encoding GASP-1 and GASP-2 were cloned into the pcDNA3 eukaryotic expression vectors. cDNAs encoding GASP-3, -6, -7, and -9 were subcloned into pcDNA3.1 vectors. All the clones were controlled by DNA sequencing. The in vitro production was performed by using the TNT Quick-coupled Transcription/Translation T7 kit (Promega) in presence of [^35S]-Methionine according to the instructions from the manufacturer.
(§2) GST-fusion proteins were immobilized on glutathione-coupled Sepharose beads (GE Healthcare) for 1 h at 4°C and incubated with [^35S]-labelled in vitro translated GASP proteins or their truncated or mutated forms in ice-cold binding buffer containing: 20 mM Tris-HCl pH 7.4, 150 mM NaCl, 1 mM EDTA, 1 mM DTT, 10% glycerol and 1% Triton X-100. The mixture was incubated for 1 h at 4°C with gentle rocking. The beads were washed five times with the same ice-cold buffer, resuspended in 30 µl SDS-PAGE sample buffer, incubated 10 min at 65°C, and pelleted for 60 s at 3000 g. The supernatants were then analyzed by SDS-PAGE, the gels were stained with Coomassie blue to visualize GST-fusion proteins, dried and analyzed using a Phosphor-imager (Personal Molecular Imager FX, Biorad) to visualize [^35S]-labelled GASPs. Quantification was performed with the Quantity One software (Biorad). GST-pull down quantification data were analyzed using GraphPad Prism 4.03 (GraphPad Software). Quantifications presented are means of at least three independent experiments.

[6] = system: GST-fused CNR2 C-tail; assay: GST-pull down, CNR2 C-tail; type: binding; conditions: central domain compared to full-length GASP-1
Experimental: cDNAs encoding the cytoplasmic C-tail of 14 GPCRs and 2 one-transmembrane receptors were cloned into the pGEX-2T prokaryotic expression vector downstream the GST sequence. […]
as §2, with “The mixture was incubated for 1 h at 4°C with gentle rocking. The beads were washed five times with the same ice-cold buffer, resuspended in 30 µl SDS-PAGE sample buffer, incubated 10 min at 65°C, and pelleted for 60 s at 3000 g.” left out

[7] = system: GFP-tagged ADRB1 in HEK293 cells; assay: Co-immunoprecipitation, ADRB1; type: cell-based; conditions: 48 h expression, anti-GFP immunoprecipitation
Experimental: as §1

B1: central domain of GASP-1: central portion of GASP-1 (AA 380 to 1073) that contains 19 GASP motif (protein)
chain: MTKEEAKTKARARAKQEARSEEEALIGTWFWATDESSMADEASIESSLQVEDESIIGSWFWTEEEASMGTGASSKSRPRTDGERIGDSLFGAREKTSMKTGAEATSESILAADDEQVIIGSWFWAGEEVNQEAEEETIFGSWFWVIDAASVESGVGVSCESRTRSEEEEVIGPWFWSGEQVDIEAGIGEEARPGAEEETIFGSWFWAENQTYMDCRAETSCDTMQGAEEEEPIIGSWFWTRVEACVEGDVNSKSSLEDKEEAMIPCFGAKEEVSMKHGTGVRCRFMAGAEETNNKSCFWAEKEPCMYPAGGGSWKSRPEEEEDIVNSWFWSRKYTKPEAIIGSWLWATEESNIDGTGEKAKLLTEEETIINSWFWKEDEAISEATDREESRPEAEEGDIIGSWFWAGEEDRLEPAAETREEDRLAAEKEGIVGSWFGAREETIRREAGSCSKSSPKAEEEEVIIGSWFWEEEASPEAVAGVGFESKPGTEEEEITVGSWFWPEEEASIQAGSQAVEEMESETEEETIFGSWFWDGKEVSEEAGPCCVSKPEDDEEMIVESWFWSRDKAIKETGTVATCESKPENEEGAIVGSWFEAEDEVDNRTDNGSNCGSRTLADEDEAIVGSWFWAGDEAHFESNPSPVFRAICRSTCSVEQEPDPSRRPQSWEEVTVQFKPGPWGRVGFPSISPFRFPKE
modifications: left off: GST, N-terminal, kept
notes: central portion of GASP-1 (AA 380 to 1073) that contains 19 GASP motif
In the case of B1, the “interaction with DOR C-tail relative to full-length GASP-1” value [1] is reported as about 30%, the “co-immunoprecipitation with ADRB2” value [2] is reported as “co-immunoprecipitated” and the “co-immunoprecipitation with CALCR” value [3] is reported as “co-immunoprecipitated”. The “co-immunoprecipitation with M1” value [4] was “co-immunoprecipitated”, the “interaction with M1 C-tail relative to full-length GASP-1” value [5] was “around 70%” and the “interaction with CNR2 C-tail” value [6] was “mandatory and sufficient for this interaction”. For the same molecule, the “co-immunoprecipitation with ADRB1” value [7] was “co-immunoprecipitated”.
